Data from patent US20180155451A1 (published 2018).
Like-named read-outs stand apart in the source and are kept apart here. Blank lines part the entries; values can stand above or below the binder they belong to.

Columns and labels:
FcgRIIa H [1] = target: T1, FcgRIIa H (human, UniProt P12318 34-217); assay: SPR (Biacore), antibody captured on chip, FcgR extracellular domain as analyte
T1 construct: extracellular domain; also called FcγRIIa H; FcγRIIa type H; not shown: His tag attached to the C terminus
T1 sequence (looked up): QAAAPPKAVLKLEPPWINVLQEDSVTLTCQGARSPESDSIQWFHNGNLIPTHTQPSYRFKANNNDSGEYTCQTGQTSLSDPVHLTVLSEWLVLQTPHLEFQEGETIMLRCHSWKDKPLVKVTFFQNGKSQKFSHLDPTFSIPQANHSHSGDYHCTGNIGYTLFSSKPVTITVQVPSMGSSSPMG
Protocol: (§1) Analysis of interaction between obj ective antibody and the FcγR was carried out using Biacore T100 (GE Healthcare), Biacore T200, Biacore A100, and Biacore 4000. HBS-EP+ (GE Healthcare) was used as the running buffer, and the measurement temperature was set to 25° C. Chips produced by immobilizing the antigen peptide by the amine coupling method to a Series S sensor Chip CM5 (GE Healthcare), chips produced by allowing preliminarily biotinylated antigen peptides to interact with and immobilize onto a Series S Sensor Chip SA (certified) (GE Healthcare), chips produced by immobilizing Protein L (ACTIGEN, BioVision) to Series S Sencor Chip CM5 (GE Healthcare), or chips produced by immobilizing Protein A/G (Thermo Scientific) to Series S Sencor Chip CM5 (GE Healthcare) were used. Antibodies of interest were captured onto these chips, and allowed to interact to each FcγR diluted with running buffer. To regenerate and repeatedly use the chip, the antibodies captured onto the chip were washed off by reacting 10 mM glycine-HCl, pH 1.5.

FcgRIIa R [2] = target: T2, FcgRIIa R (human, UniProt P12318 34-217); assay: as above
T2 construct: extracellular domain; also called FcγRIIa R; FcγRIIa type R; not shown: His tag attached to the C terminus
T2 sequence (looked up): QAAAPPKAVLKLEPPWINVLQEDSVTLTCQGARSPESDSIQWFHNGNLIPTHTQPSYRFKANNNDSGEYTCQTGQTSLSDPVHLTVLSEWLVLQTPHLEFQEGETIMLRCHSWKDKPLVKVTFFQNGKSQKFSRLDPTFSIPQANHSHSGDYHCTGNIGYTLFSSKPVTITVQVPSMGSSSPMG
Protocol: as §1

FcgRIIb [3] = target: T3, FcgRIIb (human, UniProt P31994 43-217); assay: as above
T3 construct: extracellular domain; Expressed in FreeStyle293 cells and purified; used as analyte in Biacore; also called FcγRIIb; CD32B; not shown: His tag attached to the C terminus
T3 sequence (looked up): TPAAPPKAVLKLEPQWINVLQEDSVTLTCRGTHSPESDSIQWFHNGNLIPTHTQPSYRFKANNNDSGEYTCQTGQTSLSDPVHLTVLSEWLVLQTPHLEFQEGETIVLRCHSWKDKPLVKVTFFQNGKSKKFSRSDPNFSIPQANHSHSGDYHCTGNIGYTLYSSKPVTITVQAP
Protocol: as §1

FcgRIa [4] = target: T4, FcgRIa (human, UniProt P12314 16-292); assay: as above
T4 construct: extracellular domain; Expressed in FreeStyle293 cells and purified; used as analyte in Biacore; also called FcγRIa; FcγRI; not shown: His tag attached to the C terminus
Protocol: as §1
T4 sequence (P12314 16-292): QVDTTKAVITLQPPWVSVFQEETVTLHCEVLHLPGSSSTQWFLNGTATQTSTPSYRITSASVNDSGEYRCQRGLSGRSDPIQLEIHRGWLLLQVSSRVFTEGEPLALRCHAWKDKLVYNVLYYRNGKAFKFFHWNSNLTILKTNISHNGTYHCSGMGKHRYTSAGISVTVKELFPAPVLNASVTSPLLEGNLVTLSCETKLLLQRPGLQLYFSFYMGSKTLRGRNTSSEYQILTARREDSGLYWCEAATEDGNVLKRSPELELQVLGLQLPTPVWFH

FcgRIIIa V [5] = target: T5, FcgRIIIa V (human, UniProt P08637 17-208); assay: as above
T5 construct: extracellular domain; also called FcγRIIIa V; not shown: His tag attached to the C terminus
T5 sequence (P08637 17-208 F176V limits assumed): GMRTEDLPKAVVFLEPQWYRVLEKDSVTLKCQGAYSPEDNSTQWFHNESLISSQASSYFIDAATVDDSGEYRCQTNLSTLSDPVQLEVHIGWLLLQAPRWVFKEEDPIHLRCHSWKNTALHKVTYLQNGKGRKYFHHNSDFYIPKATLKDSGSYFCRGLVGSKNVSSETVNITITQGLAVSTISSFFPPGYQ
Protocol: as §1

FcgRIIIa F [6] = target: T6, FcgRIIIa F (human, UniProt P08637 17-208); assay: as above
T6 construct: extracellular domain; also called FcγRIIIa F; not shown: His tag attached to the C terminus
T6 sequence (P08637 17-208): as the sequence (P08637 17-208 F176V limits assumed) above, with V160F counted along it
Protocol: as §1

FcgRIIa H [7] = target: T1, FcgRIIa H; assay: as above; remark: listed apart in the source
Protocol: (§2) H240-Kn113 (SEQ ID NO: 92) resulting from introduction of Y234E and Y235N into H240-Kn072, H240-Kn115 (SEQ ID NO: 93) resulting from introduction of S239M into H240-Kn072, and H240-Kn125 (SEQ ID NO: 94) resulting from introduction of Y235Q and S239M into H240-Kn072 were prepared according to the method described in Reference Example 1.
as §1

FcgRIIa R [8] = target: T2, FcgRIIa R; assay: as above; remark: listed apart in the source
Protocol: as §2, §1

FcgRIIb [9] = target: T3, FcgRIIb; assay: as above; remark: listed apart in the source
Protocol: as §2, §1

FcgRIa [10] = target: T4, FcgRIa; assay: as above; remark: listed apart in the source
Protocol: as §2, §1

FcgRIIIa V [11] = target: T5, FcgRIIIa V; assay: as above; remark: listed apart in the source
Protocol: as §2, §1

FcgRIIIa F [12] = target: T6, FcgRIIIa F; assay: as above; remark: listed apart in the source
Protocol: as §2, §1

FcgRIa [13] = target: T7, FcgRIa (human, UniProt P12314 16-292); assay: SPR (Biacore), antibody captured on chip, FcgR as analyte
T7 construct: extracellular domain; also called FcγRIa; FcγRI; not shown: C-terminal His tag
Protocol: (§3) The variants described above were assessed for their binding to FcgR according to the method described in Reference Example 8.
as §1
T7 sequence (P12314 16-292): as the sequence (P12314 16-292) above

FcgRIIIaF [14] = target: T8, FcgRIIIaF (human, UniProt P08637 17-208); assay: as above
T8 construct: extracellular domain; F158 allotype; also called FcγRIIIa F; not shown: C-terminal His tag
T8 sequence (P08637 17-208): as the sequence (P08637 17-208 F176V limits assumed) above, with V160F counted along it
Protocol: as §3, §1

FcgRIIb [15] = target: T9, FcgRIIb (human, UniProt P31994 43-217); assay: as above
T9 construct: extracellular domain; also called FcγRIIb; CD32B; not shown: C-terminal His tag
T9 sequence (looked up): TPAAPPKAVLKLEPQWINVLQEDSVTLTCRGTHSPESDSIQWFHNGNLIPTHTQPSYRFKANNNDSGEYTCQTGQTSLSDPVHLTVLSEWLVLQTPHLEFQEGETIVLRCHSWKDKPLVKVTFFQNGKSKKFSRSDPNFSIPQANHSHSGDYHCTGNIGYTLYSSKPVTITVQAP
Protocol: as §3, §1

FcgRIIaH [16] = target: T10, FcgRIIaH (human, UniProt P12318 34-217); assay: as above
T10 construct: extracellular domain; H131 allotype; also called FcγRIIa H; FcgRIIa type H; not shown: C-terminal His tag
T10 sequence (looked up): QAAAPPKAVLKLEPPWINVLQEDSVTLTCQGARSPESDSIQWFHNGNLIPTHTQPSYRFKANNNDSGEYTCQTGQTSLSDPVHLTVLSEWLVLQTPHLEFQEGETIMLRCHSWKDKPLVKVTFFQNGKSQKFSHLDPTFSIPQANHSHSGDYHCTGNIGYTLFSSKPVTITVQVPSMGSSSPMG
Protocol: as §3, §1

FcgRIIaR [17] = target: T11, FcgRIIaR (human, UniProt P12318 34-217); assay: as above
T11 construct: extracellular domain; R131 allotype; also called FcγRIIa R; FcgRIIa type R; not shown: C-terminal His tag
T11 sequence (looked up): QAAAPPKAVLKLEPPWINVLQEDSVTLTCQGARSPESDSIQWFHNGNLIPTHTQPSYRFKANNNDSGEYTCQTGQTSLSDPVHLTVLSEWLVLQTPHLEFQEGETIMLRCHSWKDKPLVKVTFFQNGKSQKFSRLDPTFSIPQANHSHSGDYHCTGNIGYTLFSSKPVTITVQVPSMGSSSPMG
Protocol: as §3, §1

FcgRIIIaV [18] = target: T12, FcgRIIIaV (human, UniProt P08637 17-208); assay: as above
T12 construct: extracellular domain; V158 allotype; also called FcγRIIIa V; not shown: C-terminal His tag
T12 sequence (P08637 17-208 F176V limits assumed): as the sequence (P08637 17-208 F176V limits assumed) above
Protocol: as §3, §1

FcgRIIIaF [19] = target: T8, FcgRIIIaF; assay: SPR (Biacore); KD of H240-Kn120/H240-Hl068/L73-k0 divided by KD of the sample
Protocol: as §3, §1

FcgRIIb [20] = target: T9, FcgRIIb; assay: as above
Protocol: as §3, §1

FcgRIIaH [21] = target: T10, FcgRIIaH; assay: as above
Protocol: as §3, §1

FcgRIIaR [22] = target: T11, FcgRIIaR; assay: as above
Protocol: as §3, §1

FcgRIIIaV [23] = target: T12, FcgRIIIaV; assay: as above
Protocol: as §3, §1

Kd (FcgRIIa H [1]): 660 nM
Kd (FcgRIIa R [2]): 880 nM
Kd (FcgRIIb [3]): 6100 nM
Kd (FcgRIa [4]): 0.23 nM
Kd (FcgRIIIa V [5]): 310 nM
Kd (FcgRIIIa F [6]): 1400 nM
Kd (FcgRIIa H [7]): 660 nM
Kd (FcgRIIa R [8]): 880 nM
Kd (FcgRIIb [9]): 6000 nM
Kd (FcgRIa [10]): 0.23 nM
Kd (FcgRIIIa V [11]): 310 nM
Kd (FcgRIIIa F [12]): 1400 nM
B1: H240-G1d/L73-k0 (antibody, human IgG1, kappa)
heavy: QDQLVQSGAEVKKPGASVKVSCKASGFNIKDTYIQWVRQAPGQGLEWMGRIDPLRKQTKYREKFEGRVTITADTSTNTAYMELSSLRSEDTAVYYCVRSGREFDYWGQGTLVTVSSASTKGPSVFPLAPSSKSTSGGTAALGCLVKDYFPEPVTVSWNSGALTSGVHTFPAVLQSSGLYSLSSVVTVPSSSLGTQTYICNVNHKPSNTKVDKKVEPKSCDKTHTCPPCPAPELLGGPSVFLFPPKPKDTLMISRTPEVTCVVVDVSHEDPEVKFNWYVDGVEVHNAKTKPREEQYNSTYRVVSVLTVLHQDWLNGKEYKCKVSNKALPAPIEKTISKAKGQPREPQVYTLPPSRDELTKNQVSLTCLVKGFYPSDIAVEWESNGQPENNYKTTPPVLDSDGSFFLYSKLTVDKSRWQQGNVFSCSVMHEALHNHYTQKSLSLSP
light: DIQMTQSPSSLSASVGDRVTITCRASQDIHKYIAWYQQKPGQAPRLLIQYTSTLQPGVPSRFSGSGSGTDYTFTISSLQPEDIATYYCLQYEQLRTFGGGTKVEIKRTVAAPSVFIFPPSDEQLKSGTASVVCLLNNFYPREAKVQWKVDNALQSGNSQESVTEQDSKDSTYSLSSTLTLSKADYEKHKVYACEVTHQGLSSPVTKSFNRGEC
notes: Anti-EREG native IgG1 (G1d constant region lacks the C-terminal Gly and Lys); also called native IgG1

Kd (FcgRIIa H [1]): 910 nM
Kd (FcgRIIa R [2]): 940 nM
Kd (FcgRIIb [3]): 4300 nM
Kd (FcgRIa [4]): 0.61 nM
Kd (FcgRIIIa V [5]): 330 nM
Kd (FcgRIIIa F [6]): 1600 nM
B2: H240-A5E/H240-B3E/L73-k0 (antibody, human IgG1, kappa)
heavy 1: not shown
heavy 2: not shown
light: DIQMTQSPSSLSASVGDRVTITCRASQDIHKYIAWYQQKPGQAPRLLIQYTSTLQPGVPSRFSGSGSGTDYTFTISSLQPEDIATYYCLQYEQLRTFGGGTKVEIKRTVAAPSVFIFPPSDEQLKSGTASVVCLLNNFYPREAKVQWKVDNALQSGNSQESVTEQDSKDSTYSLSSTLTLSKADYEKHKVYACEVTHQGLSSPVTKSFNRGEC
notes: Anti-EREG IgG1 control: H240-G1dE with D356K/H435R in one H chain and K439E in the other, no FcgR-related alterations

Kd (FcgRIa [13]): 87 nM
Kd (FcgRIIIaF [14]): 23 nM
Kd (FcgRIIb [15]): 390 nM
Kd (FcgRIIaH [16]): 46 nM
Kd (FcgRIIaR [17]): 19 nM
Kd (FcgRIIIaV [18]): 6.2 nM
Relative KD (FcgRIIIaF [19]): 0.1
Relative KD (FcgRIIb [20]): 0.4
Relative KD (FcgRIIaH [21]): 0.9
Relative KD (FcgRIIaR [22]): 1.1
Relative KD (FcgRIIIaV [23]): 0.1
B3: H240-Kn120/H240-Hl085/L73-k0 (antibody, human IgG1, kappa)
heavy 1: QDQLVQSGAEVKKPGASVKVSCKASGFNIKDTYIQWVRQAPGQGLEWMGRIDPLRKQTKYREKFEGRVTITADTSTNTAYMELSSLRSEDTAVYYCVRSGREFDYWGQGTLVTVSSASTKGPSVFPLAPSSKSTSGGTAALGCLVKDYFPEPVTVSWNSGALTSGVHTFPAVLQSSGLYSLSSVVTVPSSSLGTQTYICNVNHKPSNTKVDKKVEPKSCDKTHTCPPCPAPEYYWGPMVFLFPPKPKDTLMISRTPEVTCVVVDVSDEDPEVKFNWYVDGVEVHNAKTKPREEQYNATYRVVSVLTVLHQDWLNGKEYKCKVSNKDLPAPIEKTISKAKGQPREPQVCTLPPSRDELTKNQVSLWCLVKGFYPSDIAVEWESNGQPENNYKTTPPVLDSDGSFFLYSKLTVDKSRWQQGNVFSCSVMHEALHNHYTQKSLSLSP
heavy 2: QDQLVQSGAEVKKPGASVKVSCKASGFNIKDTYIQWVRQAPGQGLEWMGRIDPLRKQTKYREKFEGRVTITADTSTNTAYMELSSLRSEDTAVYYCVRSGREFDYWGQGTLVTVSSASTKGPSVFPLAPSSKSTSGGTAALGCLVKDYFPEPVTVSWNSGALTSGVHTFPAVLQSSGLYSLSSVVTVPSSSLGTQTYICNVNHKPSNTKVDKKVEPKSCDKTHTCPPCPAPELLVGPSVFLFPPKPKDTLMISRTPEVTCVVVDVSHEEPEVKFNWYVDGVEVHNAKTKPREEQYNSTYRVVSVLTVLHQDWLNGKEYKCKVSNDALPKPIEETISKAKGQPREPQVYTLPPSRCELTKNQVSLSCAVKGFYPSDIAVEWESNGQPENNYKTTPPVLDSDGSFFLVSKLTVDKSRWQQGNVFSCSVMHEALHNHYTQKSLSLSP
light: DIQMTQSPSSLSASVGDRVTITCRASQDIHKYIAWYQQKPGQAPRLLIQYTSTLQPGVPSRFSGSGSGTDYTFTISSLQPEDIATYYCLQYEQLRTFGGGTKVEIKRTVAAPSVFIFPPSDEQLKSGTASVVCLLNNFYPREAKVQWKVDNALQSGNSQESVTEQDSKDSTYSLSSTLTLSKADYEKHKVYACEVTHQGLSSPVTKSFNRGEC
notes: Heterodimerized anti-epiregulin antibody; G236V in the Hl068 chain; also called H240-Kn120/H240-HI085/L73-k0
